Patent publication US20110105397A1, “METHOD FOR TREATING HEART FAILURE WITH STRESSCOPIN-LIKE PEPTIDES” (priority 2009, published 2011)
Values joined by “and” are separate entries in the source; they are usually repeats but may differ in a detail not shown here. Equal values may be shown once. Where no end group is shown, it is not given here.

What was measured:
[1] = target: T1, human corticotrophin releasing hormone receptor type 1 (CRHR1) (human, UniProt P34998 24-415); assay: radioligand competition against [125I]-(Tyr0)-sauvagine, CRHR1 assay; ND = Not detectable
T1 construct: whole, on cells; cAMP assay on whole cells; radioligand assay on cell membranes; also called h-CRHR1; CRH receptor type 1
T1 sequence (looked up): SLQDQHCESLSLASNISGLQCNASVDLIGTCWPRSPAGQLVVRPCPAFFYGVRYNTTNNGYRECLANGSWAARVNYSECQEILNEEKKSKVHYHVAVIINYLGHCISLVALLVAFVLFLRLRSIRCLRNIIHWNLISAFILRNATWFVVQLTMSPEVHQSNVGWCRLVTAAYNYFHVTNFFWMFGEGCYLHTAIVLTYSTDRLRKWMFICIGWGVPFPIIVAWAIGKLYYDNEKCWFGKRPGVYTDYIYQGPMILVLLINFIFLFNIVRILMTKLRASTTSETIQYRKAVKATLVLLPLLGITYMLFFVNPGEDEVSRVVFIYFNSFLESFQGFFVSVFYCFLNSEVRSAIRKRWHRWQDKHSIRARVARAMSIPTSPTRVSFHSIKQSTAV

[2] = target: T2, human corticotrophin releasing hormone receptor type 2 (CRHR2) (human) (UniProt Q13324); assay: radioligand competition against [125I]-anti-sauvagine-30, membranes of SK-N-MC cells with human CRHR2
T2 sequence (looked up): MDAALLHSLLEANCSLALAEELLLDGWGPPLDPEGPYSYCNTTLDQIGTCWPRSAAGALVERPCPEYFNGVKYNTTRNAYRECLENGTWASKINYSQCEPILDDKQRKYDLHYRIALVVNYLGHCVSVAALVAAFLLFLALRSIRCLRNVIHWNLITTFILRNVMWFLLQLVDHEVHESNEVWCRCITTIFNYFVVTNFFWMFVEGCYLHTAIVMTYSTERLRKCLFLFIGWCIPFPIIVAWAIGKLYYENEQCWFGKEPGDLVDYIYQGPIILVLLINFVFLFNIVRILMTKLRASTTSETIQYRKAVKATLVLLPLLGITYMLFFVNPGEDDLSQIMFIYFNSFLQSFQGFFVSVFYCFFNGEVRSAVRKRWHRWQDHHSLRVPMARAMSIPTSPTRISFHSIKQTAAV

[3] = target: T2, human corticotrophin releasing hormone receptor type 2 (CRHR2) (human); assay: cell-based or functional assay

HPGSRIVLSLDVPIGLLQILLEQARARAAREQATTNARILARV-NH2 (also called h-SRP) [human stresscopin related peptide]
binding result [1]: no binding
pKI [2]: 7.57 -log10(M)
pA50 [3]: 9.32 -log10(M) and 9.58 -log10(M) and 9.23 -log10(M)
